The record followed here is article PMC7293229.

The target of one experiment is SxtT. In words: crystal structure; SxtT crystallised anaerobically, hanging drop, 2.0 M (NH4)2SO4, 0.1 M Bis-Tris pH 6.5, 10% glycerol, 20 °C; without and with 20 mM ddSTX; three molecules in the asymmetric unit.
Another experiment addresses GxtA. In words: crystal structure; GxtA crystallised anaerobically, hanging drop, 0.3 M MgCl2, 0.1 M Bis-Tris pH 5.5, 25% PEG3350, 15% glycerol, 20 °C; without and with 20 mM ddSTX; three molecules in the asymmetric unit.

As usually defined, the stoichiometry N is the number of molecules, sites or subunits per partner or assembly.

SxtT (enzyme) returned a stoichiometry N in the experiment with SxtT of 3.

In the case of GxtA (enzyme), the stoichiometry N in the experiment with GxtA was 3.
